This is an account of results in US8187596 (SCHERING, dated 2012).

T1: murine IL-1R1-Fc fusion protein (R&D Systems) (murine, UniProt P13504 20-338, limits assumed)
T1 construct: Bought reagent (R&D Systems), coated on the plate at 3 ug/ml; not shown: Fc part of the bought fusion protein
T1 sequence (looked up): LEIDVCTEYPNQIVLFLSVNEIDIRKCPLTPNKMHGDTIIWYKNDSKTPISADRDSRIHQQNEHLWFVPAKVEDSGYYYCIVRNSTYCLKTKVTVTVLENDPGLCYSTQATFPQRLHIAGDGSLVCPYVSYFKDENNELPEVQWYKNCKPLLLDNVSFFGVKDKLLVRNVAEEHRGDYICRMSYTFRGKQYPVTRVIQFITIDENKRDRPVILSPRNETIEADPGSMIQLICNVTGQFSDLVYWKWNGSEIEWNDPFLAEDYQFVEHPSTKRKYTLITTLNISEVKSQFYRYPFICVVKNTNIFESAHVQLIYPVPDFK

T2: complex of plate-bound murine IL-1R1-Fc and murine IL-1β (murine, UniProt P13504 20-338; P10749 118-269, limits assumed)
T2 construct: Formed in the ELISA well from coated IL-1R1-Fc and titrated IL-1β; It is the partner that captures his6-IL-1RAcP; also called IL-1/IL-1R1 complex; not shown: Fc part of the bought fusion protein
T2 sequence (looked up) 1: T1 sequence (looked up)
T2 sequence (looked up) 2: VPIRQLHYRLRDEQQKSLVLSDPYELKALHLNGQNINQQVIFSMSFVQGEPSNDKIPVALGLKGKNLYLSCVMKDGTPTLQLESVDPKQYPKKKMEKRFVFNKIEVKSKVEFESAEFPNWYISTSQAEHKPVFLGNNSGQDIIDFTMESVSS

B1: murine IL-1β (ligand, UniProt P10749 118-269, looked up)
chain: T2 sequence (looked up) 2
notes: also called mouse IL-1β
B2: recombinant his6-tagged murine IL-1RAcP (receptor, UniProt Q61730 21-367, looked up)
chain: SERCDDWGLDTMRQIQVFEDEPARIKCPLFEHFLKYNYSTAHSSGLTLIWYWTRQDRDLEEPINFRLPENRISKEKDVLWFRPTLLNDTGNYTCMLRNTTYCSKVAFPLEVVQKDSCFNSAMRFPVHKMYIEHGIHKITCPNVDGYFPSSVKPSVTWYKGCTEIVDFHNVLPEGMNLSFFIPLVSNNGNYTCVVTYPENGRLFHLTRTVTVKVVGSPKDALPPQIYSPNDRVVYEKEPGEELVIPCKVYFSFIMDSHNEVWWTIDGKKPDDVTVDITINESVSYSSTEDETRTQILSIKKVTPEDLRRNYVCHARNTKGEAEQAAKVKQKVIPPRYTVELACGFGAT
notes: Described only as soluble, recombinant and his6-tagged; also called soluble his6-tagged murine IL-1RAcP; his6-tagged IL-1RAcP; not shown: his6 tag
B3: murine IL-33 (ligand, UniProt Q8BVZ5 109-266, looked up)
chain: SIQGTSLLTQSPASLSTYNDQSVSFVLENGCYVINVDDSGKDQEQDQVLLRYYESPCPASQSGDGVDGKKLMVNMSPIKDTDIWLHANDKDYSVELQRGDVSPPEQAFFVLHKKSSDFVSFECKNLPGTYIGVKDNQLALVEEKDESCNNIMFKLSKI
notes: also called mouse IL-33

Test [1] has as its target T1, murine IL-1R1-Fc fusion protein (R&D …). Nature of the test: receptor-ligand complex ELISA: IL-1β titrated onto coated IL-1R1-Fc with his6-IL-1RAcP present; the readout is captured his6-IL-1RAcP (ternary complex). On the procedure:
(§1) Murine IL-1β or IL-33 was titrated into plates containing soluble his6-tagged murine IL-1RAcP and plate-bound ST2-Fc (FIG. 8A) or IL-1R1-Fc (FIG. 8B). Peroxidase-conjugated anti-his6 was used as a detection antibody. Data is representative of 2 experiments. Data represent the mean+/-SEM of duplicate wells.
(§2) Receptor-ligand complex ELISA: 3 µg/mlmurine ST2-Fc or IL-1R1-Fc fusion proteins (R&D Systems) in PBS were coated overnight onto MaxiSorp plates (Nunc). After washing, plates were incubated with 3 µg/ml recombinant his6-tagged murine IL-1RAcP and increasing concentrations of murine IL-33 or IL-1β in PBS/1% bovine serum albumin/ 0.05% Tween-20® polyoxyethylene sorbitan monolaurate for 1.5 hours. Plates were washed and incubated with anti-his6-peroxidase (Roche Diagnostics) for 1 hour, washed again, developed with TMB Peroxidase substrate (KPL), stopped with […], and read on a plate reader at 450-570 nm.
A general note: An ELISA detects its analyte on a solid surface through an enzyme-linked reagent.

The target of test [2] is T2, complex of plate-bound murine IL-1R1-Fc …. Nature of the test: receptor-ligand complex ELISA: IL-1R1-Fc coated, his6-IL-1RAcP 3 ug/ml in solution, IL-1β titrated, anti-his6-peroxidase detection. Here is the method:
as §1, §2

Test [3] addresses B2. Nature of the test: not described (data not shown).

Take B1: in test [1], the binding result is on record as “binds”.
B2: the binding result in test [2] is “binds”.
With B3, the binding result in test [3] is given as “no binding”.
